The target in the assay is Bim BH3 peptide (FITC-labeled) BH3 (Homo sapiens, UniProt O43521, FITC-labeled Bim BH3 peptide, GST-tagged Mcl-1). Description: fluorescence polarization.

B1: Mcl-1 (GST-tagged) 152-309 (protein)
chain: EDDLYRQSLEIISRYLREQATGSKDSKPLGEAGAAGRRALETLRRVGDGVQRNHETAFQGMLRKLDIKNEGDVKSFSRVMVHVFKDGVTNWGRIVTLISFGAFVAKHLKSVNQESFIEPLAETITDVLVRTKRDWLVKQRGWDGFVEFFHVQDLEGGI
Consider B1, for which binding was put at a Kd of 12.4 nM. This lies in the double-digit nanomolar range.
